Data set [1] has as its target T1, GST-Gaf1 (Schizosaccharomyces pombe (972?)) (UniProt Q10280).
T1 sequence: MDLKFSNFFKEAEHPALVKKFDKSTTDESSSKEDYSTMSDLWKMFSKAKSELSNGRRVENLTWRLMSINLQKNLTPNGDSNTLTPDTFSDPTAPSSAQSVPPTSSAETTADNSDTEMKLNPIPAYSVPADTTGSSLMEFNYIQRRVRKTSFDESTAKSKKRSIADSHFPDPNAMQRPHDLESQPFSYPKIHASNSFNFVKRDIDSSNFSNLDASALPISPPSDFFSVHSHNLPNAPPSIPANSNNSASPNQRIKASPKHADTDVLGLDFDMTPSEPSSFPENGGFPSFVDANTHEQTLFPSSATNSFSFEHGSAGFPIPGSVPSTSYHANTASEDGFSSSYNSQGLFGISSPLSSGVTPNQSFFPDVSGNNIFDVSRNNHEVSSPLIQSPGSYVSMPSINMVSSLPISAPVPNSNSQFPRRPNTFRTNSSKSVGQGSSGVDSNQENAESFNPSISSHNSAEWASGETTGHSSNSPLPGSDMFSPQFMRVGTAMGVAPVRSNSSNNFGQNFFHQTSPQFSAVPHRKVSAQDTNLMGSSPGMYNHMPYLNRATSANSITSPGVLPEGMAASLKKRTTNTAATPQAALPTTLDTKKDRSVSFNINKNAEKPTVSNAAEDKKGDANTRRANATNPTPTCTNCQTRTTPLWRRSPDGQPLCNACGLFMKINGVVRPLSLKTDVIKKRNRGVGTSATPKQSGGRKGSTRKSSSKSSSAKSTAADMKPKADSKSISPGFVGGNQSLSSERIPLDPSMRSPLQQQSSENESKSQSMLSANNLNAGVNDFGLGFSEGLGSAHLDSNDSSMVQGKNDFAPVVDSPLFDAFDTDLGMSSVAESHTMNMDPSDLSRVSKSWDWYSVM
Description: competition. The note with it: 10 mM Tris pH 7.5, 2 mM MgCl2, 50 mM NaCl, 1 mM DTT, 5% glycerol, 2 ug poly(dI-dC) in 20 ul, room temperature, 20 min; 6% native PAGE.

Data set [2] addresses T2, GST-Gaf1 (Schizosaccharomyces pombe, UniProt Q10280 1-855).
T2 sequence: T1 sequence
Put plainly: competition; cold PW, 100-fold, against labeled PA; 10 mM Tris pH 7.5, 2 mM MgCl2, 50 mM NaCl, 1 mM DTT, 5% glycerol, 2 ug poly(dI-dC) in 20 ul, room temperature, 20 min; 6% native PAGE. The note with it: protein: recombinant; tags: N-terminal GST (pGEX4T3); label: 32P 5'-end (probe); blunt.

For data set [3], the target named is T2, GST-Gaf1. Description: competition; cold PM, 100-fold, against labeled PA; 10 mM Tris pH 7.5, 2 mM MgCl2, 50 mM NaCl, 1 mM DTT, 5% glycerol, 2 ug poly(dI-dC) in 20 ul, room temperature, 20 min; 6% native PAGE. Conditions: protein: recombinant; tags: N-terminal GST (pGEX4T3); label: 32P 5'-end (probe).

The source of these data is article PMC3416868, “The Fission Yeast GATA Factor, Gaf1, Modulates Sexual Development via Direct Down-Regulation of ste11+ Expression in Response to Nitrogen Starvation”.

Changes are numbered by the printed parent chain.

Consider “GGATATCCTTTTAATATATGCTAAATGAATAGATTCTCACTATGTAAGTCACCAGGTATGTATGTATATATATATATATATACATACGCATTGGCAACCAACTAGTAAGAGTATAGAGCGAGGCGTAATACGCGATGTTACTGACAATGAAAATCAAACAAAGAAATTCAACTTTTTTAAGTCTAGCCAAAATGTGTATGAGGGGAAGGGACAAAATTCACAGGGGTTAAAGTAACATATG (double strand) [PB]”, for which the binding entry in data set [1] is on record as “no binding”.

B1: PW (dsDNA)
DNA 1: CATTTTGCCTTGCGCTATCTCCCTCAACGAAAAG
DNA 2: CTTTTCGTTGAGGGAGATAGCGCAAGGCAAAATG
On to B1, for which, in the data set with GST-Gaf1 [2], the binding result is on record as “binds”.

B2: PM (dsDNA)
DNA 1: B1 DNA 1 with T16A, A17T, C19G
DNA 2: B1 DNA 2 with G16C, T18A, A19T
B2: the binding result with GST-Gaf1 [3] is on record as “no binding”.
